# Source: patent US20220135656A1 (NIMA ACQUISITION, published 2022)
# Several values for one entry are separate records, joined by “and”; a condition that tells them apart may be missing. Identical values can stand only once. Ends that are not written are not given here. * marks the point of attachment. Biotin = O=C1N[C@H]2[C@H](CS[C@H]2CCCCC(=O)*)N1
# T1: peptide SPQQPYPQPQ (SEQ ID NO: 55)
# T1 construct: Crude 10-mer of the peptide library; also called group A peptide
# T1 peptide: Biotin-SPQQPYPQPQ
# T2: peptide PPQLPYPQPP (SEQ ID NO: 59)
# T2 construct: Crude 10-mer of the peptide library; also called group A peptide
# T2 peptide: Biotin-PPQLPYPQPP
# T3: peptide PQLPYPQPQL (SEQ ID NO: 57)
# T3 construct: Crude 10-mer of the peptide library; also called group A peptide
# T3 peptide: Biotin-PQLPYPQPQL
# T4: peptide QLPYPQPQLP (SEQ ID NO: 52)
# T4 construct: Crude 10-mer of the peptide library; also called group A peptide
# T4 peptide: Biotin-QLPYPQPQLP
# T5: peptide PQLPYPQPQP (SEQ ID NO: 53)
# T5 construct: Crude 10-mer of the peptide library; also called group A peptide
# T5 peptide: Biotin-PQLPYPQPQP
# T6: peptide PQQPYPQSQP (SEQ ID NO: 58)
# T6 construct: Crude 10-mer of the peptide library; also called group A peptide
# T6 peptide: Biotin-PQQPYPQSQP
# T7: peptide PPQQPYPQPQ (SEQ ID NO: 54)
# T7 construct: Crude 10-mer of the peptide library; also called group A peptide
# T7 peptide: Biotin-PPQQPYPQPQ
# T8: peptide PQPQLPYPQP (SEQ ID NO: 51)
# T8 construct: Crude 10-mer of the peptide library; also called group A peptide
# T8 peptide: Biotin-PQPQLPYPQP
# T9: peptide PQQPYPQPQP (SEQ ID NO: 50)
# T9 construct: Crude 10-mer of the peptide library from antigen 1/2/3; also called group A peptide
# T9 peptide: Biotin-PQQPYPQPQP
# T10: peptide QPQLPYPQPQ (SEQ ID NO: 56)
# T10 construct: Crude 10-mer of the peptide library; also called group A peptide
# T10 peptide: Biotin-QPQLPYPQPQ
# T11: peptide 43 (QQQQQQQQQQ)
# T11 peptide: Biotin-QQQQQQQQQQ
# T12: peptide PFRPQQPYPQ (SEQ ID NO: 62)
# T12 construct: Crude 10-mer of the peptide library; also called group B peptide
# T12 peptide: Biotin-PFRPQQPYPQ
# T13: peptide PFPPQQPYPQ (SEQ ID NO: 60)
# T13 construct: Crude 10-mer of the peptide library; also called group B peptide
# T13 peptide: Biotin-PFPPQQPYPQ
# T14: peptide YPQPQLPYPQ (SEQ ID NO: 61)
# T14 construct: Crude 10-mer of the peptide library; also called group B peptide
# T14 peptide: Biotin-YPQPQLPYPQ
# Key:
# [1] = target: T1, peptide SPQQPYPQPQ (SEQ ID NO: 55); test: peptide ELISA; biotinylated crude peptide on streptavidin, mAb 0.5 µg/ml; value given for group A
# [2] = target: T2, peptide PPQLPYPQPP (SEQ ID NO: 59); test: as above
# [3] = target: T3, peptide PQLPYPQPQL (SEQ ID NO: 57); test: as above
# [4] = target: T4, peptide QLPYPQPQLP (SEQ ID NO: 52); test: as above
# [5] = target: T5, peptide PQLPYPQPQP (SEQ ID NO: 53); test: as above
# [6] = target: T6, peptide PQQPYPQSQP (SEQ ID NO: 58); test: as above
# [7] = target: T7, peptide PPQQPYPQPQ (SEQ ID NO: 54); test: as above
# [8] = target: T8, peptide PQPQLPYPQP (SEQ ID NO: 51); test: as above
# [9] = target: T9, peptide PQQPYPQPQP (SEQ ID NO: 50); test: as above
# [10] = target: T10, peptide QPQLPYPQPQ (SEQ ID NO: 56); test: as above
# PWG-gliadin [11] = target: T15, PWG-gliadin (wheat); test: SPR, Biacore T200; Glutenin amine-coupled to the chip, antibody as analyte 3-243 nM; 1:1 binding fit; Chi2 16 RU2, U-value 2
# T15 construct: also called Gluten; glutenin
# Experimental: (§1) In this experiment, glutenin protein was coated through amine coupling method, the antibodies were flowed over the sensor chip as analytes. The experiment was carried out using the following protocol.
# (§2) Coat glutenin onto the Series S Sensor Chip CM5 via primary amine groups using the following conditions: [0123] (1) Equilibrate: HBS-EP, flow rate 10 μl/min, 5 min; [0124] […] (3) Couple ligand: inject glutenin (15 μg/ml, 10 mM sodium acetate, pH 4.5), flow rate 10 μl/min, until ˜300 RU of glutenin is coated; [0126] (4) Deactivate excess reactive groups: inject ethanolamine, flow rate 10 μl/min, 7 min.
# (§3) In this study, the binding affinities between glutenin and three monoclonal antibodies were determined. The experiment was carried out where glutenin was amine coupled to the sensor chip and antibodies were used as analytes. The result of is with good curve fitting and low U-values, and thus is reliable.
# PWG-gliadin [12] = target: T15, PWG-gliadin; test: SPR (Biacore T200), gliadin amine-coupled, antibody as analyte; 'as shown in the examples'
# peptide 43 (QQQQQQQQQQ) = target: T11, peptide 43 (QQQQQQQQQQ); test: peptide ELISA, biotinylated peptide captured on streptavidin
# [13] = target: T12, peptide PFRPQQPYPQ (SEQ ID NO: 62); test: peptide ELISA; biotinylated crude peptide on streptavidin, mAb 0.5 µg/ml; value given for group B
# [14] = target: T13, peptide PFPPQQPYPQ (SEQ ID NO: 60); test: as above
# [15] = target: T14, peptide YPQPQLPYPQ (SEQ ID NO: 61); test: as above
# PWG-gliadin [16] = target: T15, PWG-gliadin; test: SPR, Biacore T200; Glutenin amine-coupled to the chip, antibody as analyte 3-243 nM; 1:1 binding fit; Chi2 29.9 RU2, U-value 2
# Experimental: as §1, §2, §3
# [17] = target: T12, peptide PFRPQQPYPQ (SEQ ID NO: 62); test: peptide ELISA; group B; the number is missing in the cell
# [18] = target: T13, peptide PFPPQQPYPQ (SEQ ID NO: 60); test: as above
# [19] = target: T14, peptide YPQPQLPYPQ (SEQ ID NO: 61); test: as above
Binder,OD450nm [1],OD450nm [2],OD450nm [3],OD450nm [4],OD450nm [5],OD450nm [6],OD450nm [7],OD450nm [8],OD450nm [9],OD450nm [10],Kd (PWG-gliadin [12]),binding result (peptide 43 (QQQQQQQQQQ)),other results
"14G11 monoclonal antibody (antibody, IgG1, V domains shown, also called 14G11 monoclonal Ab) VH: QIQLVQSGPEMKKPGETVKIFCKASGYTLTDYSMHWVKQAPGKGLKWMGWINTETGEPTYADDFKGRCAFSLETSVSTAFLQINNLKNEDMGTYFCASSGAWFSYWGQGTLVTVSA VL: DVLLTQTPLSLPVSLGDQASISCRSSQTIVQINGNTHLEWFLQKPGQSPKLLIYKVSNRFSGVPDRFSGSGSGTDFTLKISRVEAEDLGIYYCFQGSHVPFTFGSGTKLEIK",~1,~1,~1,~1,~1,~1,~1,~1,~1,~1,< 0.05 µM and ~0.03 µM,no binding,Kd (PWG-gliadin [11]): 0.0306 µM; koff (PWG-gliadin [11]): 0.00225 s⁻¹; kon (PWG-gliadin [11]): 73600 M⁻¹ s⁻¹; OD450nm [13]: < 0.5; OD450nm [14]: < 0.5; OD450nm [15]: < 0.5
"13F6 monoclonal antibody (antibody, IgG2b, V domains shown, also called 13F6 monoclonal Ab) VH: QIQLVQSGPELKKPGETVKISCKASGYTFTDYSMHWVRQAPGKGLKWMGWINTETGEPTYADDFKGRFAFSLETSASTAYLQINNLKNEDTATHFCAPSVAWFAYWGQGTLVTVST VL: DVLMTQTPLSLSVSLGDQASISCRSSQSIVQSNGNTHLEWFLQKPGQSPKLLIYKVSNRFSGVPDRFSGSGSGTDFTLKISRVEAEDLGVYYCFQGSHVPFTFGSGTKLEIK",~2,~2,~2,~2,~2,~2,~2,~2,~2,~2,< 10 nM and 5 nM to 6 nM (2×),no binding,Kd (PWG-gliadin [16]): 0.00581 µM; koff (PWG-gliadin [16]): 0.000663 s⁻¹; kon (PWG-gliadin [16]): 114000 M⁻¹ s⁻¹; binding result [17]: binds; binding result [18]: binds; binding result [19]: binds
